Earlier results, collected in article PMC7761795.

Tests used:
UBE2N (Homo sapiens) [1] = target: UBE2N (Homo sapiens) (UniProt P61088); assay: SPR; details: cited from earlier work
UBE2N (Homo sapiens) [2] = target: UBE2N (Homo sapiens) (UniProt P61088); assay: fluorescence polarization; details: cited from earlier work

OTUB1, sequence (Q96FW1 2-271): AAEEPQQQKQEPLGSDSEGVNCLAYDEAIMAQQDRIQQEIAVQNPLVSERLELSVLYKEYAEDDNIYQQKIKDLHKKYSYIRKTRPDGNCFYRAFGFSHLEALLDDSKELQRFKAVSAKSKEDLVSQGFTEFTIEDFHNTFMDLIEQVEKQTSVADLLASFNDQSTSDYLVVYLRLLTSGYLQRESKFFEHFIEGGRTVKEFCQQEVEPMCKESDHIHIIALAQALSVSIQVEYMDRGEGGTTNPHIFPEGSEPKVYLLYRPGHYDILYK
UBE2N (Homo sapiens), sequence (P61088 whole entry): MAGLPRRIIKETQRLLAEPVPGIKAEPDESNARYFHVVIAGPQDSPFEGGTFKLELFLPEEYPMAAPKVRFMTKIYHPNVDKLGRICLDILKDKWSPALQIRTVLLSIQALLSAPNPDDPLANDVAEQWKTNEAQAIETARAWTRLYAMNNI

OTUB1 (from UniProt Q96FW1)
Kd (UBE2N (Homo sapiens) [1]): 8.9 µM | Kd (UBE2N (Homo sapiens) [2]): 7.04 µM
